1 molecule from PMC4102245, “A molecular model for the role of SYCP3 in meiotic chromosome organisation” (eLife, 2014) can be followed below.

The target in the data set is T1, SYCP3 dCt6 dBP1+2 (human, UniProt Q8IZU3 1-230, K52A;R53A;R54A;K55A;K56A;R57A;K88A;R89A;K90A;R91A).
T1 sequence: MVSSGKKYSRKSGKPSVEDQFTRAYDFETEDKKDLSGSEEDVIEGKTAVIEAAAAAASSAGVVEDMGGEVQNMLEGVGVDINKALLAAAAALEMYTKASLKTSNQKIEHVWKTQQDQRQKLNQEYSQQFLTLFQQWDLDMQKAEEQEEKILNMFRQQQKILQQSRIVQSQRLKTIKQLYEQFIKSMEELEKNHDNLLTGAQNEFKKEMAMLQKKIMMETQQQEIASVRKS
The experiment in a line: fluorescence anisotropy; up to 20 uM protein; 20 mM Tris pH 8.0, 150 mM KCl; FA at 25 C with 25 nM DNA (0-20 uM protein); EMSA 5 min at 4 C with 18.7 uM (per bp) DNA (0-40 uM protein), 0.5% agarose, 0.5x TBE. As to conditions: protein: recombinant; tags: N-terminal His6, TEV-cleaved; chain copies: 4; label: 5' FAM.

B1: 60 bp FAM-dsDNA (dsDNA)
DNA 1: ATGGTGTGTGTAGGTTAATGTGAGGAGGAGAGGTGAAGAAGGAGGAGAGAAGAAGGAGGC
DNA 2: GCCTCCTTCTTCTCTCCTCCTTCTTCACCTCTCCTCCTCACATTAACCTACACACACCAT
For B1, the binding result is “no binding”.
